Measurements as given in patent US20260258117A1 (ACADEMISCH ZIEKENHUIS LEIDEN H O D N LUMC, published 2026).

Columns and labels:
[1] = target: T1, Complement Factor H protein (human, UniProt P08603 19-1231); assay: bispecific ELISA
T1 construct: Plasma protein, bought purified or present in normal human serum; also called FH; CFH
Procedure: BsAbs were tested for binding to both antigens in a bispecific ELISA. MaxiSorp plates (Thermo Scientific, Nunc, 430341) were coated with 50 μL/well BSA-DNP (10 μg/mL, Biosearch Technologies, D-5050-10, conjugation ration 13) in coating buffer (0.1 M Na₂CO₃/NaHCO₃PH 9.6) for 1 hour at 37° C. After every incubation, plates were washed three times with PBS/0.05% Tween 20. Plates were blocked with 100 μL/well PBS/1% BSA for 1 hour at 37° C. After washing, plates were incubated with 50 μL/well (bs) Abs diluted in PBS/0.05% Tween 20/1% BSA (PTB buffer) for 1 hour at 37° C. Next, 1 μg/mL FH (CompTech, A137) or C4BP (CompTech, A109) diluted in PTB buffer was added. FH was detected using goat anti-human FH (Quidel, A312) and HRP-labeled rabbit anti-goat Ig (Dako, P0449), and C4BP was detected using rabbit anti-human C4BP (kind gift from Anna M. Blom, Malmö, Sweden) and HRP-labeled goat anti-rabbit Ig (Dako, P0448), all diluted in PTB buffer. Plates were developed by incubating with 50 μL/well ABTS (Merck, A1888-5G) containing 1:2000 diluted H₂O₂ (Merck, 1072090250), and read at 415 nm using a microplate reader (BIO-RAD iMark). It was confirmed by ELISA that the bsAbs can bind to a specific target (e.g., DNP as a model antigen) as well as FH or C4BP, whereas the parental monospecific antibodies cannot (FIG. 1A).

[2] = target: T1, Complement Factor H protein; assay: flow cytometry, FH detected on Ramos cells treated with bsAb and normal human serum
Procedure: Ramos cells (originally from ATCC) were plated at 100,000 cells/well (V-bottom microplate, Greiner Bio-One, 651101). Cells were incubated with 100 μL/well samples containing 0.3 μg/mL anti-CD20 wild-type with or without 20 μg/mL bsAbs (anti-FH x anti-HLA I and controls) with or without 10 μg/mL FH for 30 minutes. After every incubation, cells were washed with 150 μL/well PBS/1% FCS. Cells were incubated with 100 μL/well 10% NHS in RPMI (for FH detection in the presence of 50 μg/mL eculizumab) for 45 minutes at 37° C. Cell viability was measured by adding 100 μL/well 7-AAD (BD Pharmingen, 559925) 1:200 diluted in PBS/1% FCS. FH was detected using mouse anti-human FH (1:100, OX-23, generated in-house) and goat anti-mouse IgG AF488 (1:50, Life Technologies, A11001). Cells were measured using a FACSCanto flow cytometer (BD Biosciences).

C4b-binding protein = target: T2, C4b-binding protein (human, UniProt P04003 49-597; P20851 18-252); assay: bispecific ELISA and complement activation assay on biotinylated BSA-DNP, C4BP detected
T2 construct: also called C4BP
T2 sequence (looked up) 1: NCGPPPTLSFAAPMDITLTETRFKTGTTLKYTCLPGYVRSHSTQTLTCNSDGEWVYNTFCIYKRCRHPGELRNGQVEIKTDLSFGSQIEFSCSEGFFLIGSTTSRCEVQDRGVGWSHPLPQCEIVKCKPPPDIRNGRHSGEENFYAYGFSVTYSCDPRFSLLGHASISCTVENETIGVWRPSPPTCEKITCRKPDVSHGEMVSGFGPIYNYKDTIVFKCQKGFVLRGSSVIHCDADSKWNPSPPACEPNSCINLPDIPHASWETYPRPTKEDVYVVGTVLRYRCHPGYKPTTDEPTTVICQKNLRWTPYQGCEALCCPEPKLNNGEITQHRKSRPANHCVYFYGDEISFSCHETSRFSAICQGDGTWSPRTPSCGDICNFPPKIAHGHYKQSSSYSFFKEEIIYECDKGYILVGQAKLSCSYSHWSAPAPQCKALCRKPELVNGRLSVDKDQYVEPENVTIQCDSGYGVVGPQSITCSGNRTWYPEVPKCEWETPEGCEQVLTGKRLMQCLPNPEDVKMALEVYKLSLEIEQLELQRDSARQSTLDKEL
T2 sequence (looked up) 2: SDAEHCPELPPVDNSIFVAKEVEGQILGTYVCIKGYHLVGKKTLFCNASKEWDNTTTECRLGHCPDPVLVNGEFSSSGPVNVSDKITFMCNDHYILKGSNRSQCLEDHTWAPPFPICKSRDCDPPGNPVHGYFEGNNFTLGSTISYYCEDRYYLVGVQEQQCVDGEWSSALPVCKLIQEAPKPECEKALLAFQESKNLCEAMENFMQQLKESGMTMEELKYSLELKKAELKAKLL

T1 sequence (P08603 19-1231 limits assumed): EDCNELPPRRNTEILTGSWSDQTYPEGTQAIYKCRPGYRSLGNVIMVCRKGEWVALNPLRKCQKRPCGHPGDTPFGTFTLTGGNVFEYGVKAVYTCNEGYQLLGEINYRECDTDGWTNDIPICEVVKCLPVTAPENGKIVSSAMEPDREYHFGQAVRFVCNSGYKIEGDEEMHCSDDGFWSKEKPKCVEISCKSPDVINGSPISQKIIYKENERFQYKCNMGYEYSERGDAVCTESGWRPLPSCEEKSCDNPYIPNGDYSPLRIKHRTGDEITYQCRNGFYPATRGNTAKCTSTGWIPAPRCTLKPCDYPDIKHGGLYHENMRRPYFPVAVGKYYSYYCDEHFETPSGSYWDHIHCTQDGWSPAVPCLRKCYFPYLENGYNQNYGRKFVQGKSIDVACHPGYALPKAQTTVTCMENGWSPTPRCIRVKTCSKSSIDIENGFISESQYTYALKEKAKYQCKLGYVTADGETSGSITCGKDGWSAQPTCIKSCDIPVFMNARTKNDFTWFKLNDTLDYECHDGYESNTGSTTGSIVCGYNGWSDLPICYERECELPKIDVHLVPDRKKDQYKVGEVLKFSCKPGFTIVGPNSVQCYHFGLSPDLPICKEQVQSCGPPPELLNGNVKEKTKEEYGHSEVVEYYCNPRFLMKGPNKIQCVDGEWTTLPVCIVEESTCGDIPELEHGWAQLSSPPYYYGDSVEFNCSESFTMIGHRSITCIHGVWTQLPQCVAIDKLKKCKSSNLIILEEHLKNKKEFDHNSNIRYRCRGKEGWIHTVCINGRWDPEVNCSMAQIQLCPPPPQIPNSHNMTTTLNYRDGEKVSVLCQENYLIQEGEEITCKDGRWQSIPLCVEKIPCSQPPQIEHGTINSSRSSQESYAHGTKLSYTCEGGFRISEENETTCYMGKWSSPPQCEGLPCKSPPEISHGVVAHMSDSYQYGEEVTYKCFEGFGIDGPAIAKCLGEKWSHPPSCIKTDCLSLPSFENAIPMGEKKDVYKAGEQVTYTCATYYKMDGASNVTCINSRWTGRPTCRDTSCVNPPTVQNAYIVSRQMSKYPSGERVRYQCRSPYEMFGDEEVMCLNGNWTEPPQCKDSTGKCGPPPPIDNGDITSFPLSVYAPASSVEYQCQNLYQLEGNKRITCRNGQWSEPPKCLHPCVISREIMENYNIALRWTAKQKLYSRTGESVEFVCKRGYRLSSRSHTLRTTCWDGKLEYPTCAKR

B1: Anti-FH F405L LALAPG, Anti-DNP K409R LALAPG (bispecific antibody, human IgG1, kappa, L234A L235A)
heavy 1: EVQLQQSGPELVKPGASVKISCKASGYSFTGYFIHWVKQSHVKSLEWFGRINPYNGATDYNQNFKDKAILTIDESSSTAYMEIHSLTSDDSAVYYCARGLFLDYWGQGTTLTVSSASTKGPSVFPLAPSSKSTSGGTAALGCLVKDYFPEPVTVSWNSGALTSGVHTFPAVLQSSGLYSLSSVVTVPSSSLGTQTYICNVNHKPSNTKVDKRVEPKSCDKTHTCPPCPAPEAAGGPSVFLFPPKPKDTLMISRTPEVTCVVVDVSHEDPEVKFNWYVDGVEVHNAKTKPREEQYNSTYRVVSVLTVLHQDWLNGKEYKCKVSNKALGAPIEKTISKAKGQPREPQVYTLPPSREEMTKNQVSLTCLVKGFYPSDIAVEWESNGQPENNYKTTPPVLDSDGSFLLYSKLTVDKSRWQQGNVFSCSVMHEALHNHYTQKSLSLSPGK
light 1: DILMTQSPSSMSVSLGDTVSITCHASQGITSNIGWLQQKPGKSFKGLIYHGTNLEDGVPSRFSGSGSGADYSLTISSLESEDFADYYCVQYAQFPWTFGGGTKLEIKRTVAAPSVFIFPPSDEQLKSGTASVVCLLNNFYPREAKVQWKVDNALQSGNSQESVTEQDSKDSTYSLSSTLTLSKADYEKHKVYACEVTHQGLSSPVTKSFNRGEC
heavy 2: DVRLQESGPGLVKPSQSLSLTCSVTGYSITNSYYWNWIRQFPGNKLEWMVYIGYDGSNNYNPSLKNRISITRDTSKNQFFLKLNSVTTEDTATYYCARATYYGNYRGFAYWGQGTLVTVSAASTKGPSVFPLAPSSKSTSGGTAALGCLVKDYFPEPVTVSWNSGALTSGVHTFPAVLQSSGLYSLSSVVTVPSSSLGTQTYICNVNHKPSNTKVDKRVEPKSCDKTHTCPPCPAPEAAGGPSVFLFPPKPKDTLMISRTPEVTCVVVDVSHEDPEVKFNWYVDGVEVHNAKTKPREEQYNSTYRVVSVLTVLHQDWLNGKEYKCKVSNKALGAPIEKTISKAKGQPREPQVYTLPPSREEMTKNQVSLTCLVKGFYPSDIAVEWESNGQPENNYKTTPPVLDSDGSFFLYSRLTVDKSRWQQGNVFSCSVMHEALHNHYTQKSLSLSPGK
light 2: DIRMTQTTSSLSASLGDRVTISCRASQDISNYLNWYQQKPDGTVKLLIYYTSRLHSGVPSRFSGSGSGTDYSLTISNLEQEDIATYFCQQGNTLPWTFGGGTKLEIKRTVAAPSVFIFPPSDEQLKSGTASVVCLLNNFYPREAKVQWKVDNALQSGNSQESVTEQDSKDSTYSLSSTLTLSKADYEKHKVYACEVTHQGLSSPVTKSFNRGEC
notes: Made by controlled Fab-arm exchange of the two parental IgG1 kappa antibodies; also called anti-FH x anti-DNP
[1]
  binding result: binds

B2: Anti-FH F405L LALAPG, Anti-HLA I K409R LALAPG (bispecific antibody, human IgG1, kappa, L234A L235A)
heavy 1: EVQLQQSGPELVKPGASVKISCKASGYSFTGYFIHWVKQSHVKSLEWFGRINPYNGATDYNQNFKDKAILTIDESSSTAYMEIHSLTSDDSAVYYCARGLFLDYWGQGTTLTVSSASTKGPSVFPLAPSSKSTSGGTAALGCLVKDYFPEPVTVSWNSGALTSGVHTFPAVLQSSGLYSLSSVVTVPSSSLGTQTYICNVNHKPSNTKVDKRVEPKSCDKTHTCPPCPAPEAAGGPSVFLFPPKPKDTLMISRTPEVTCVVVDVSHEDPEVKFNWYVDGVEVHNAKTKPREEQYNSTYRVVSVLTVLHQDWLNGKEYKCKVSNKALGAPIEKTISKAKGQPREPQVYTLPPSREEMTKNQVSLTCLVKGFYPSDIAVEWESNGQPENNYKTTPPVLDSDGSFLLYSKLTVDKSRWQQGNVFSCSVMHEALHNHYTQKSLSLSPGK
light 1: DILMTQSPSSMSVSLGDTVSITCHASQGITSNIGWLQQKPGKSFKGLIYHGTNLEDGVPSRFSGSGSGADYSLTISSLESEDFADYYCVQYAQFPWTFGGGTKLEIKRTVAAPSVFIFPPSDEQLKSGTASVVCLLNNFYPREAKVQWKVDNALQSGNSQESVTEQDSKDSTYSLSSTLTLSKADYEKHKVYACEVTHQGLSSPVTKSFNRGEC
heavy 2: QVQLKQSGPGLVQPSQSLSLTCTVSGFSLTSYGVHWVRQPPGKGLEWLGVIWSGGSTDYNAAFISRLSIRKDNSKSQVFFKMNSLQADDTAIYYCARTFTTSTSAWFAYWGQGTLVTVSAASTKGPSVFPLAPSSKSTSGGTAALGCLVKDYFPEPVTVSWNSGALTSGVHTFPAVLQSSGLYSLSSVVTVPSSSLGTQTYICNVNHKPSNTKVDKRVEPKSCDKTHTCPPCPAPEAAGGPSVFLFPPKPKDTLMISRTPEVTCVVVDVSHEDPEVKFNWYVDGVEVHNAKTKPREEQYNSTYRVVSVLTVLHQDWLNGKEYKCKVSNKALGAPIEKTISKAKGQPREPQVYTLPPSREEMTKNQVSLTCLVKGFYPSDIAVEWESNGQPENNYKTTPPVLDSDGSFFLYSRLTVDKSRWQQGNVFSCSVMHEALHNHYTQKSLSLSPGK
light 2: SIVMTQTPKFLLVSAGDRVTITCKASQSVSNDVAWYQQKPGQSPKLLIYYASNRYTGVPDRFTGSGYGTDFTFTISTVQAEDLAVYFCQQDYSSPPWTFGGGTKLEIRRTVAAPSVFIFPPSDEQLKSGTASVVCLLNNFYPREAKVQWKVDNALQSGNSQESVTEQDSKDSTYSLSSTLTLSKADYEKHKVYACEVTHQGLSSPVTKSFNRGEC
notes: Made by controlled Fab-arm exchange; also called anti-FH x anti-HLA I
[2]
  binding result: binds

B3: Anti-C4BP F405L LALAPG, Anti-biotin K409R LALAPG (bispecific antibody, human IgG1, kappa, L234A L235A)
heavy 1: EVQLVESGGGLVKPGGSLKLSCAVSGFIFSDYYMYWVRQTPEKRLEWVATISDGGVYTYYPDSMKGRFTISRDNAKNNLYLQMSSLKSEDTAMYYCVRGDYYGNSLDYWGQGTSVTVSSASTKGPSVFPLAPSSKSTSGGTAALGCLVKDYFPEPVTVSWNSGALTSGVHTFPAVLQSSGLYSLSSVVTVPSSSLGTQTYICNVNHKPSNTKVDKRVEPKSCDKTHTCPPCPAPEAAGGPSVFLFPPKPKDTLMISRTPEVTCVVVDVSHEDPEVKFNWYVDGVEVHNAKTKPREEQYNSTYRVVSVLTVLHQDWLNGKEYKCKVSNKALGAPIEKTISKAKGQPREPQVYTLPPSREEMTKNQVSLTCLVKGFYPSDIAVEWESNGQPENNYKTTPPVLDSDGSFLLYSKLTVDKSRWQQGNVFSCSVMHEALHNHYTQKSLSLSPGK
light 1: DVVMTQTPLTLSITIGQPASISCKSSQSLLDGDGKTYLNWLLQRPGQSPKRLIYLVSKLDSGVPDRFTGSGSGTDFTLKISRVEAEDLGVYYCCQGTHFPWTFGRGTKLEIKRTVAAPSVFIFPPSDEQLKSGTASVVCLLNNFYPREAKVQWKVDNALQSGNSQESVTEQDSKDSTYSLSSTLTLSKADYEKHKVYACEVTHQGLSSPVTKSFNRGEC
heavy 2: QVKLQESGPGLVAPSQSLSITCTVSGFSLTAYGVDWVRQPPGKGLEWLGVIWGGGRTNYNSGLMSRLSIRKDNSKSQVFLTMNSLQTDDTAKYYCVKHTNWDGGFAYWGQGTTVTVSSASTKGPSVFPLAPSSKSTSGGTAALGCLVKDYFPEPVTVSWNSGALTSGVHTFPAVLQSSGLYSLSSVVTVPSSSLGTQTYICNVNHKPSNTKVDKRVEPKSCDKTHTCPPCPAPEAAGGPSVFLFPPKPKDTLMISRTPEVTCVVVDVSHEDPEVKFNWYVDGVEVHNAKTKPREEQYNSTYRVVSVLTVLHQDWLNGKEYKCKVSNKALGAPIEKTISKAKGQPREPQVYTLPPSREEMTKNQVSLTCLVKGFYPSDIAVEWESNGQPENNYKTTPPVLDSDGSFFLYSRLTVDKSRWQQGNVFSCSVMHEALHNHYTQKSLSLSPGK
light 2: DVVMTQSPLSLPVSLGDQASISCRSGQGLVYSNGDTYLHWYLQKPGQSPKLLIYKVSNRFSGVPDRFSGSGSGTDFTLKISRVEAEDLGVYFCSQSTHFPFTFGSGTKLEIKRTVAAPSVFIFPPSDEQLKSGTASVVCLLNNFYPREAKVQWKVDNALQSGNSQESVTEQDSKDSTYSLSSTLTLSKADYEKHKVYACEVTHQGLSSPVTKSFNRGEC
notes: Made by controlled Fab-arm exchange; also called anti-C4BP x anti-biotin
C4b-binding protein
  binding result: binds
